Results from publication PMC3868556.

What was measured:
[1] = system: T1, ComPsub (Neisseria subflava), UPI00280B593C; experiment: EMSA; details: SPR (ProteOn XPR36, NLC chip): 25 mM HEPES pH 7.9, 150 mM NaCl, 2.5 mM MgCl2, 0.05% Tween-20, 25 C, 30 uM ComP; EMSA: native 10% acrylamide, LightShift kit …
T1 sequence: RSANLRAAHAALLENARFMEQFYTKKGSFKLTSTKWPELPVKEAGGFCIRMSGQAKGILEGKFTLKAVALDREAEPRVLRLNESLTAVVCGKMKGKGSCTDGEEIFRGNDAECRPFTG

[2] = system: ComP (Neisseria meningitidis 8013 (serogroup C clinical isolate)); experiment: SPR; details: SPR (ProteOn XPR36, NLC chip): 25 mM HEPES pH 7.9, 150 mM NaCl, 2.5 mM MgCl2, 0.05% Tween-20, 25 C, 30 uM ComP; EMSA: native 10% acrylamide, LightShift kit …

Sequence	binding [1]	binding signal [2]
GTATGGGCGGCTCGGCGTTTGGTCAGGTGTACAACAATATGAGCGGCGACGCGCCCGATTTGGACGATACAGGCCGTCTGAAAGACTTTTACGGCGTGATTCAACAGCTTGTCGCCGAAGACAAACTCTTGGCGTATCACGACCGCAGCGAC (double strand) [purL fragment with one DUSvar1]	binds	
TGACCATGCCGTCTGAACAAAC (double strand) [DUS]		100 % of DUS Req
